Consider 30 sequences from the nanobody polyreactivity screen of Harvey et al. (2022).

The nature of the data set: yeast display, Sf9 membrane polyspecificity reagent, FACS + sequencing; frameworks hold sequencing errors. The essentials:
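After 36–48 hours of galactose induction, yeast (Saccharomyces cerevisiae BJ5465) displaying a synthetic nanobody library were stained at 4 °C for 1 hour with 10% biotinylated, detergent-solubilized Sf9 membrane reagent. Streptavidin microbeads enriched the stained cells before FACS sorting into low and high (top ~1%) gates on anti-HA and streptavidin fluorescence. Each clone's polyreactivity label reflects its gate of origin.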
On to “QVQLVESGGGLVQAGGSLRLSCAASGRTFIRYAMGWYRQAPGKERELVAAITQSGGSTYYADSVKGRFTISRDNAKNTVYLQMNSLKPEDTAVYYCAAEYRYPGWSYNYWGQGTQVTVSS”, for which the “polyreactivity (PSR sort gate)” value is given as “high polyreactivity”.

“QVQLVESGGGLVQAGGSLRLSCAASGRTFISNAMGWYRQAPGKERELVAAISSVGSTNYADSVKGRFTISRDNAKNTVYLQMKSLKPEDTAVYYCAAGRFWFLAHYGGYYWGQGTQVTVSS”: the “polyreactivity (PSR sort gate)” value is on record as “high polyreactivity”. In the case of “QVQLVESGGGLVQAGGSLRLSCAASGRTFISNTMGWYRQAPGKERELVAALSGSGGSTYYADSVKGRFTISRDNAKNSVYLNMNRLKPEDTAVYYCNAPYVRQTRFGQSVRNNYWGQGTQVTVSS”, the “polyreactivity (PSR sort gate)” value is on record as “high polyreactivity”. Take “QVQLVESGGGLVQAGGSLRLSCAASGRTFISYAMGWYRQAPGKERELVAGISTSGDNTYNADSVKGRFTISRDNAKNTVYLQMNSLKPEDTAVYYCAAGQDLHDFDYWGQGTQVTVSS”: the “polyreactivity (PSR sort gate)” value is reported as “low polyreactivity”. For the sequence “QVQLVESGGGLVQAGGSLRLSCAASGRTFIVNAMGWYRQAPGKERELVAAITKGARTYYADSVKGRFTISRDNAKNTVYLQMNSLKPEDSAVYYCAAVSYTQSHAYWGTGYRYGYWGQGTQVTVSS”, the “polyreactivity (PSR sort gate)” value is given as “high polyreactivity”. “QVQLVESGGGLVQAGGSLRLSCAASGRTFIYNVMGWYRQAPGKERELVASIRSSGGSTYYADSVKGRFTISRDNAKNSVYLQMNSLKPEDTAVYYCAADRSPGIRCWPGDYWGQGTQVTVSS”: the “polyreactivity (PSR sort gate)” value is “low polyreactivity”. On to “QVQLVESGGGLVQAGGSLRLSCAASGRTFIYYAMGWYRQAPGKEREFVAIISWNGTSTNYADSVKGRFTISRDNAKNTVYLQMNSLKPEDTAVYYCAASFWTDYYRYDYWGQGTQVTVSS”, for which the “polyreactivity (PSR sort gate)” value is “low polyreactivity”. Consider “QVQLVESGGGLVQAGGSLRLSCAASGRTFIYYAMGWYRQAPGKERELVAAITNRGGRTYYADSVKWRFTISRDNAKYTVYLQMNSLKPEDTAVYYCNRVGTYHSYDYWGQGTQVTVSS”, for which the “polyreactivity (PSR sort gate)” value is on record as “high polyreactivity”. Regarding “QVQLVESGGGLVQAGGSLRLSCAASGRTFIYYTMGWYREAPGKERELVASISFSGGRTYYADSVKGRFTISRDNAKNTVYLQMNSLKAEDTAVYYCNRVLYYQVDYWGQGTEVTVSS”, the “polyreactivity (PSR sort gate)” value is given as “high polyreactivity”. Under “QVQLVESGGGLVQAGGSLRLSCAASGRTFKDYVMGWYRQAPGKERELVAAITWRGGRTYYADSVKGRFTISRDNAKNTVYLQMNSLKPEDTAVYYCAAAEYFVSGGIMDYWGQGTQVTVSS” stands “high polyreactivity”; under “QVQLVESGGGLVQAGGSLRLSCAASGRTFKGYTMGWYRQAPGKERELVAAITRSGGGTYYADSVKGRFTISRDNAKNTVYLQMNSLKPEDTAVYYCAAYNGSRRQEFDYWGQGTQVTVSS”, “high polyreactivity”; under “QVQLVESGGGLVQAGGSLRLSCAASGRTFKLYAMGWYRQAPGKERELVATIRRSGTRTYADSVKGRFTISRDNAKNTVYLQMNSLKPEDTAVYYCAATTYGYVYHRYDYWGQGTQVTVSS”, “high polyreactivity”. Consider “QVQLVESGGGLVQAGGSLRLSCAASGRTFKPYAMGWYRQAPGKERELVAAISTRGGSTYADSVKGRFTISRDNAKNTVYLQMNSLKPEDTAVYSCAAVYYRASARKFGYWGQGTQVTVSS”, for which the “polyreactivity (PSR sort gate)” value is “low polyreactivity”.

As for “QVQLVESGGGLVQAGGSLRLSCAASGRTFKPYGMGWYRQAPGKERELVAAISSRGDITYYADSVKGRFTISRDNAKNTVYLQMNSLKPEDTAVYYCNADLYRKRAWVRRDGSWGQGTQVTVSS”, the “polyreactivity (PSR sort gate)” value is “low polyreactivity”. The result for “QVQLVESGGGLVQAGGSLRLSCAASGRTFKRFAMGWYRQAPGKERELVAAITWSGGNTYYADSVKGRFTISRDNAKNTVYLQMNSLKPEDTAVYYCAAKGAGRRYDSWGQGTQVTVSS” reads “high polyreactivity”.

For the sequence “QVQLVESGGGLVQAGGSLRLSCAASGRTFKSYAMGWYRQAPGKERELVATITRDGRTNYADSVKGRFTISRDNAKNTVYLQMNSLKPEDTAVYYCNADSRYRYDYWGLGTQVTVSS”, the “polyreactivity (PSR sort gate)” value is recorded as “low polyreactivity”. As to “QVQLVESGGGLVQAGGSLRLSCAASGRTFKWNAMGWYRQAPGKERELVAAISSRDGSTYYADSVKGRFTISRDNAKNTVYLQMNSLKPEDTAVYYCNAYFTGARQRTLGYDYWGQGTQVTVSS”, the “polyreactivity (PSR sort gate)” value is on record as “low polyreactivity”. Take “QVQLVESGGGLVQAGGSLRLSCAASGRTFKWNPMGWYRQAPGKERELVAAITRSDGRTFYADSVKGRFTISRDNAKNTVYLQMNSLKPEDSAVYYCNALGYRNSVIYSGFDYWGQGTQVTVSS”: the “polyreactivity (PSR sort gate)” value was “low polyreactivity”. In the case of “QVQLVESGGGLVQAGGSLRLSCAASGRTFKYYAMGWARQAPGKERELVATISYNGASTYYADSVKGRFTSSRDNAKNSVYLQMNSQKPEDTAVYYCAAAYLWRGRLGYWGQGTQVTVSS”, the “polyreactivity (PSR sort gate)” value was “high polyreactivity”. For the sequence “QVQLVESGGGLVQAGGSLRLSCAASGRTFKYYAMGWYRQAPGKERELVAAISLSSGRTYYADSVKGRFTISRDNAKNTVYLQMNSLKPEDTAVYYCAAERYASGLVYGYDYWGQGTQVTVSS”, the “polyreactivity (PSR sort gate)” value is “high polyreactivity”. With “QVQLVESGGGLVQAGGSLRLSCAASGRTFKYYAMGWYRQAPGKERELVAAISRGGSTNYADSVKGRFTISRDNAKNTVYLQVNSLKPEDTAVYYCARRYIVQSGDDYWGQGTQVTVSS”, the “polyreactivity (PSR sort gate)” value was “low polyreactivity”. Consider “QVQLVESGGGLVQAGGSLRLSCAASGRTFKYYAMGWYRQAPGKERELVAAISYNGGSTFYADSVKGRFTISRDNAKNTVYLQMNSLKPEDTAVYYCAAGSRYASELDYWGQGTQVTVSS”, for which the “polyreactivity (PSR sort gate)” value is given as “high polyreactivity”. On to “QVQLVESGGGLVQAGGSLRLSCAASGRTFKYYAMGWYRQAPGKERELVAAITYRDRTYYADSVKGRFTISRDNAKNTVYLQMNSLKPEDTAVYYCAAQHYGSDGRGFDYWGQGTQVTVSS”, for which the “polyreactivity (PSR sort gate)” value is reported as “low polyreactivity”. As to “QVQLVESGGGLVQAGGSLRLSCAASGRTFKYYAMGWYRQAPGKERELVAGITSGSSTSYADSVKGRFTISRDNAKITVYLQMNSLKPEDTAVYFCAAGIYQYRYDYWGQGTQVTVSS”, the “polyreactivity (PSR sort gate)” value is “high polyreactivity”. For the sequence “QVQLVESGGGLVQAGGSLRLSCAASGRTFKYYAMGWYRQAPGKERELVAGITYRDGRTYYADSVKGRFTISRDNAKNTVYLQMNSLKPEDTEVYYCAAERYSSPYWGMDYWGQGTQVTVSS”, the “polyreactivity (PSR sort gate)” value is listed as “high polyreactivity”. For the sequence “QVQLVESGGGLVQAGGSLRLSCAASGRTFKYYAMGWYRQAPGKERELVASISASGGSTRYADSVKGRFTISRDNAKNTVYLQMNSLKPEDTAVYYCAADRGYKYYYWGLGTQVTVSS”, the “polyreactivity (PSR sort gate)” value is on record as “high polyreactivity”. Regarding “QVQLVESGGGLVQAGGSLRLSCAASGRTFKYYTMGWYRQAPGKEREFVAAITSSGGRTYYADSVKGRFTISRDNAKNTVDLQMNSLKPEDTAVYYCAASTYRVWLAPATLSRYDYWGQGTQVTVSS”, the “polyreactivity (PSR sort gate)” value is given as “high polyreactivity”. The result for “QVQLVESGGGLVQAGGSLRLSCAASGRTFLAYAMGWYRQAPGKERELVAAISSSGSTTYYADSVKGRFTISRDNAKNTVYLQMNSLKPEDTAVYYCAASNGYRSSYYRYDYWGQGTQVTVSS” reads “low polyreactivity”; that for “QVQLVESGGGLVQAGGSLRLSCAASGRTFLEYAMGWYRQAPGKERELVASITWSGDTTYYADSVKGRFTISRDNAKNTVYLQMNSLKPEDTAVYYCAAGYYYPNTYYSYDWYDYWGQGTQVTVSS”, “low polyreactivity”; that for “QVQLVESGGGLVQAGGSLRLSCAASGRTFLGYTMGWYRQAPGKESEFVAAITFSGDSTYYADSVKGRFTISRDNAKNTVYLQMNSLKPEDTAVYYCAARIKYYTYLFYYWGQGTQVTVSS”, “high polyreactivity”.
